T1: human CD81 mutant V135A (human, UniProt P60033 1-236, limits assumed)
T1 construct: as m30; not shown: C-terminal V5 and 6xHis tags
T1 sequence: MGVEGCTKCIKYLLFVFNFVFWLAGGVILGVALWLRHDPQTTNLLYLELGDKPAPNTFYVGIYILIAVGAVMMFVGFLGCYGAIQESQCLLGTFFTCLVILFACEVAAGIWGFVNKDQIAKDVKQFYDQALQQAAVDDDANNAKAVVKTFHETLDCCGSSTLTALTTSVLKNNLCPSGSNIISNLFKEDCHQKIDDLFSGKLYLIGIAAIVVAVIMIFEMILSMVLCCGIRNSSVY

T2: human CD81 mutant H151A (human, UniProt P60033 1-236, limits assumed)
T2 construct: as m30; not shown: C-terminal V5 and 6xHis tags
T2 sequence: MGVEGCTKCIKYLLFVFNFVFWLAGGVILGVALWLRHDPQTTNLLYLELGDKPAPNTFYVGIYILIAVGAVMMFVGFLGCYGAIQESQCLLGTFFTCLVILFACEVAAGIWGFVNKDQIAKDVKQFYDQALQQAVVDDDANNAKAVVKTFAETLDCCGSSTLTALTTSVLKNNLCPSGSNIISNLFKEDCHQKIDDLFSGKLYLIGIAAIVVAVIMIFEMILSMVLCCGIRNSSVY

T3: human CD81 mutant G158S (human, UniProt P60033 1-236, limits assumed)
T3 construct: as m30; not shown: C-terminal V5 and 6xHis tags
T3 sequence: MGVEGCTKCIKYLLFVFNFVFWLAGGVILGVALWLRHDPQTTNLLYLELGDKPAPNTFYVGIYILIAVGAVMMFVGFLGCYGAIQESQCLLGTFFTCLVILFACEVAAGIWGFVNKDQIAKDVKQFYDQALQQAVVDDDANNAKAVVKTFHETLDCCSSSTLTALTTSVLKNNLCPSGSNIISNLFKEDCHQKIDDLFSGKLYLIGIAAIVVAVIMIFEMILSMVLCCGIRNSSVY

T4: human CD81 mutant T163A (human, UniProt P60033 1-236, limits assumed)
T4 construct: as m30; not shown: C-terminal V5 and 6xHis tags
T4 sequence: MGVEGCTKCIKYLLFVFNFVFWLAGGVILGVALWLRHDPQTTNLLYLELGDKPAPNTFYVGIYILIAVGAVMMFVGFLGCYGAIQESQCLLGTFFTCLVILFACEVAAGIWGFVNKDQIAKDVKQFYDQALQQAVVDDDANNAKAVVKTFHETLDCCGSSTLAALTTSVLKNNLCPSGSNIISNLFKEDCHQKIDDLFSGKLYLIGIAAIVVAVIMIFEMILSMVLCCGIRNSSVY

T5: human CD81 mutant A164T (human, UniProt P60033 1-236, limits assumed)
T5 construct: as m30; not shown: C-terminal V5 and 6xHis tags
T5 sequence: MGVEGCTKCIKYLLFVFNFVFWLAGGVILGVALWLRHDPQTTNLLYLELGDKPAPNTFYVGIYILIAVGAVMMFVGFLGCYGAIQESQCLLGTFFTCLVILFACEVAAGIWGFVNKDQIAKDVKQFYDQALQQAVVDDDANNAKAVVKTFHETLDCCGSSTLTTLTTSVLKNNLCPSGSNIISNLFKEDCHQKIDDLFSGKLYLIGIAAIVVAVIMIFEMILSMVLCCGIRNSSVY

T6: human CD81 mutant V169A (human, UniProt P60033 1-236, limits assumed)
T6 construct: as m30; not shown: C-terminal V5 and 6xHis tags
T6 sequence: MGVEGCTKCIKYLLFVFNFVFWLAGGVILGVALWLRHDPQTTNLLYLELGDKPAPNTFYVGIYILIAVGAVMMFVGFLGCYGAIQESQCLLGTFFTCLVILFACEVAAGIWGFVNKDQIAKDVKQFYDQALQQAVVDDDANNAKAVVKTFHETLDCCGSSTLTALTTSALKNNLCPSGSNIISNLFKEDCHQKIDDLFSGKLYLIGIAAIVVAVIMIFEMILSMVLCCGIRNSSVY

T7: human CD81 mutant I194A (human, UniProt P60033 1-236, limits assumed)
T7 construct: as m30; not shown: C-terminal V5 and 6xHis tags
T7 sequence: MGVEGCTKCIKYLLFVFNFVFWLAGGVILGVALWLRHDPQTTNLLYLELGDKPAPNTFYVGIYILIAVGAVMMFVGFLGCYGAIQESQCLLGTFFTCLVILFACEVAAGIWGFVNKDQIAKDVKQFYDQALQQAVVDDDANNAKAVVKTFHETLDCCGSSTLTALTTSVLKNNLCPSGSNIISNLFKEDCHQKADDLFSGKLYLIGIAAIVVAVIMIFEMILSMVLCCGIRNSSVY

T8: human CD81 mutant L170A (human, UniProt P60033 1-236, limits assumed)
T8 construct: as m30; not shown: C-terminal V5 and 6xHis tags
T8 sequence: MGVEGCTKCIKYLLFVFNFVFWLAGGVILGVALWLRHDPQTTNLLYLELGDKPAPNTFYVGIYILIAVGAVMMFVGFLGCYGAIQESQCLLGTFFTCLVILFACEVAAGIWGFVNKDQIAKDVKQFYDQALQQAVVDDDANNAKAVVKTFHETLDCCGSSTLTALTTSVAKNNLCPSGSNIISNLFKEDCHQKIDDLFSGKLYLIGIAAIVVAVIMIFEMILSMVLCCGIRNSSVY

T9: human CD81 mutant Y127W (human, UniProt P60033 1-236, limits assumed)
T9 construct: as m30; not shown: C-terminal V5 and 6xHis tags
T9 sequence: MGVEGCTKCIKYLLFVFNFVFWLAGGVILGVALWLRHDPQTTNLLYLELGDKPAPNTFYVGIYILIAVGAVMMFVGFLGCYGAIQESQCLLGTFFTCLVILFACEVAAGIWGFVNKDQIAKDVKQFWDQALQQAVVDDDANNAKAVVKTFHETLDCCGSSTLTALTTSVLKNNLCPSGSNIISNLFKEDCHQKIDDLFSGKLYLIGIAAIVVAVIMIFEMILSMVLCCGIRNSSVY


Columns and labels:
Assay in all cases: ELISA
human CD81 mutant V135A = target: T1, human CD81 mutant V135A
human CD81 mutant H151A = target: T2, human CD81 mutant H151A
human CD81 mutant G158S = target: T3, human CD81 mutant G158S
human CD81 mutant T163A = target: T4, human CD81 mutant T163A
human CD81 mutant A164T = target: T5, human CD81 mutant A164T
human CD81 mutant V169A = target: T6, human CD81 mutant V169A
human CD81 mutant I194A = target: T7, human CD81 mutant I194A
human CD81 mutant L170A = target: T8, human CD81 mutant L170A
human CD81 mutant Y127W = target: T9, human CD81 mutant Y127W

Binder | relative binding affinity (human CD81 mutant V135A) | relative binding affinity (human CD81 mutant H151A) | relative binding affinity (human CD81 mutant G158S) | relative binding affinity (human CD81 mutant T163A) | relative binding affinity (human CD81 mutant A164T) | relative binding affinity (human CD81 mutant V169A) | relative binding affinity (human CD81 mutant I194A) | relative binding affinity (human CD81 mutant L170A) | relative binding affinity (human CD81 mutant Y127W)
002-A07 IgG4 antibody (antibody, human IgG4 S228P, lambda light chain) heavy: not shown light: QSVLTQPPSASGTPGQRVTISCTGSTSNIGAGYDTHWYQQLPGTAPKLLIYGNSNRPSGVPDRFSGSKSGTSASLAISGLRSEDEADYYCQSYDTNLSVWVFGGGTKLTVLGQPKAAPSVTLFPPSSEELQANKATLVCLISDFYPGAVTVAWKADSSPVKAGVETTTPSKQSNNKYAASSYLSLTPEQWKSHRSYSCQVTHEGSTVEKTVAPTECS | < 20% | < 20% | < 20% | < 20% | < 20% | < 20% | < 20% | – | –
002-A07 N113G (antibody, human IgG4 S228P, lambda, V domains shown, IgG4 S228P; glycosylation site mutant of 002-A07 VL) VH: EVQLLESGGGLVQPGGSLRLSCAASGFTFSSNYMSWVRQAPGKGLEWVSYISSSSTYTDYADSVKGRFTISRDNSKNTLYLQMNSLRAEDTAVYYCARYSYGRDNFDYWGQGTLVTVSS VL: QSVLTQPPSASGTPGQRVTISCTGSTSNIGAGYDTHWYQQLPGTAPKLLIYGNSNRPSGVPDRFSGSKSGTSASLAISGLRSEDEADYYCQSYDTGLSVWVFGGGTKLTVLG | < 20% | < 20% | < 20% | < 20% | < 20% | < 20% | < 20% | < 20% | –
002-A07 N113Q (antibody, human IgG4 S228P, lambda, V domains shown, IgG4 S228P; glycosylation site mutant of 002-A07 VL) VH: EVQLLESGGGLVQPGGSLRLSCAASGFTFSSNYMSWVRQAPGKGLEWVSYISSSSTYTDYADSVKGRFTISRDNSKNTLYLQMNSLRAEDTAVYYCARYSYGRDNFDYWGQGTLVTVSS VL: QSVLTQPPSASGTPGQRVTISCTGSTSNIGAGYDTHWYQQLPGTAPKLLIYGNSNRPSGVPDRFSGSKSGTSASLAISGLRSEDEADYYCQSYDTQLSVWVFGGGTKLTVLG | < 20% | < 20% | < 20% | < 20% | < 20% | < 20% | < 20% | – | –

Further lines, results first:

relative binding affinity (human CD81 mutant V135A) | relative binding affinity (human CD81 mutant H151A) | relative binding affinity (human CD81 mutant G158S) | relative binding affinity (human CD81 mutant T163A) | relative binding affinity (human CD81 mutant A164T) | relative binding affinity (human CD81 mutant V169A) | relative binding affinity (human CD81 mutant I194A) | relative binding affinity (human CD81 mutant L170A) | relative binding affinity (human CD81 mutant Y127W) | Binder
< 20% | < 20% | < 20% | < 20% | < 20% | < 20% | < 20% | < 20% | < 20% | 002-A07 S115A (antibody, human IgG4 S228P, lambda, V domains shown, IgG4 S228P; glycosylation site mutant of 002-A07 VL) VH: EVQLLESGGGLVQPGGSLRLSCAASGFTFSSNYMSWVRQAPGKGLEWVSYISSSSTYTDYADSVKGRFTISRDNSKNTLYLQMNSLRAEDTAVYYCARYSYGRDNFDYWGQGTLVTVSS VL: QSVLTQPPSASGTPGQRVTISCTGSTSNIGAGYDTHWYQQLPGTAPKLLIYGNSNRPSGVPDRFSGSKSGTSASLAISGLRSEDEADYYCQSYDTNLAVWVFGGGTKLTVLG
< 20% | – | < 20% | < 20% | < 20% | < 20% | < 20% | – | – | 002-A07 S115G (antibody, human IgG4 S228P, lambda, V domains shown, IgG4 S228P; glycosylation site mutant of 002-A07 VL) VH: EVQLLESGGGLVQPGGSLRLSCAASGFTFSSNYMSWVRQAPGKGLEWVSYISSSSTYTDYADSVKGRFTISRDNSKNTLYLQMNSLRAEDTAVYYCARYSYGRDNFDYWGQGTLVTVSS VL: QSVLTQPPSASGTPGQRVTISCTGSTSNIGAGYDTHWYQQLPGTAPKLLIYGNSNRPSGVPDRFSGSKSGTSASLAISGLRSEDEADYYCQSYDTNLGVWVFGGGTKLTVLG
< 20% | < 20% | < 20% | < 20% | < 20% | < 20% | < 20% | < 20% | – | 002-A07 N113S (antibody, human IgG4 S228P, lambda, V domains shown, IgG4 S228P; glycosylation site mutant of 002-A07 VL) VH: EVQLLESGGGLVQPGGSLRLSCAASGFTFSSNYMSWVRQAPGKGLEWVSYISSSSTYTDYADSVKGRFTISRDNSKNTLYLQMNSLRAEDTAVYYCARYSYGRDNFDYWGQGTLVTVSS VL: QSVLTQPPSASGTPGQRVTISCTGSTSNIGAGYDTHWYQQLPGTAPKLLIYGNSNRPSGVPDRFSGSKSGTSASLAISGLRSEDEADYYCQSYDTSLSVWVFGGGTKLTVLG
< 20% | – | < 20% | – | < 20% | < 20% | < 20% | – | – | 003-D07 (antibody, human IgG4 S228P, lambda, V domains shown, IgG4 S228P) VH: EVQLLESGGGLVQPGGSLRLSCAASGFTFSSNYMSWVRQAPGKGLEWVSYISSSSTYTDYADSVKGRFTISRDNSKNTLYLQMNSLRAEDTAVYYCARYSYDRDNFDYWGQGTLVTVSS VL: QSVLTQPFSASGTPGQRVTISCTGSTSNIGAGYDTHWYQHLPGTAPKLLIYGNSNRPSGVPDRFSGSKSGTSASLAISGLRSEDEADYYCQSYDTNLSVWVFGGGTKLTVLG

From patent US20150139990A1 (DAINIPPON SUMITOMO PHARMA, published 2015)
